Assay results from patent publication US20250136688A1 (Janssen / Centocor, published 2025).
Where a chain is given by its changes, count along the chain named. Names may count otherwise.

Key:
human claudin 18.2 [1] = biological target: T1, human claudin 18.2 (human, UniProt P56856-2 1-261); assay: flow cytometry on GSU cells, 1 hr at 37 °C
T1 construct: whole, on cells; also called CLDN18.2
T1 sequence (looked up): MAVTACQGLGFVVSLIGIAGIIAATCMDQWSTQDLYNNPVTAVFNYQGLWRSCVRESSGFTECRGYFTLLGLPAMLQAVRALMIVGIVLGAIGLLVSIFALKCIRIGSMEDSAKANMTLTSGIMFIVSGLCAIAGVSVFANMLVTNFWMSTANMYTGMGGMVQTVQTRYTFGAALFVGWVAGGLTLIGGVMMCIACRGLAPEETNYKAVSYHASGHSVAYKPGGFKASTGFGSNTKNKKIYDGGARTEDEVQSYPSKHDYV

human claudin 18.2 [2] = biological target: T1, human claudin 18.2; assay: flow cytometry on SK-CO-1 cells, 1 hour at 37 °C
human claudin 18.2 [3] = biological target: T1, human claudin 18.2; assay: flow cytometry on NCI-H146 cells, 1 hr at 37 °C
cyno GUCY2C = cyno GUCY2C (cynomolgus monkey, UniProt A0A2K5TZ02 16-1015); assay: flow cytometry on CHO-cynoGUCY2C cells, 60 min at 37 °C
Sequence of cyno GUCY2C (A0A2K5TZ02 entry or part of it): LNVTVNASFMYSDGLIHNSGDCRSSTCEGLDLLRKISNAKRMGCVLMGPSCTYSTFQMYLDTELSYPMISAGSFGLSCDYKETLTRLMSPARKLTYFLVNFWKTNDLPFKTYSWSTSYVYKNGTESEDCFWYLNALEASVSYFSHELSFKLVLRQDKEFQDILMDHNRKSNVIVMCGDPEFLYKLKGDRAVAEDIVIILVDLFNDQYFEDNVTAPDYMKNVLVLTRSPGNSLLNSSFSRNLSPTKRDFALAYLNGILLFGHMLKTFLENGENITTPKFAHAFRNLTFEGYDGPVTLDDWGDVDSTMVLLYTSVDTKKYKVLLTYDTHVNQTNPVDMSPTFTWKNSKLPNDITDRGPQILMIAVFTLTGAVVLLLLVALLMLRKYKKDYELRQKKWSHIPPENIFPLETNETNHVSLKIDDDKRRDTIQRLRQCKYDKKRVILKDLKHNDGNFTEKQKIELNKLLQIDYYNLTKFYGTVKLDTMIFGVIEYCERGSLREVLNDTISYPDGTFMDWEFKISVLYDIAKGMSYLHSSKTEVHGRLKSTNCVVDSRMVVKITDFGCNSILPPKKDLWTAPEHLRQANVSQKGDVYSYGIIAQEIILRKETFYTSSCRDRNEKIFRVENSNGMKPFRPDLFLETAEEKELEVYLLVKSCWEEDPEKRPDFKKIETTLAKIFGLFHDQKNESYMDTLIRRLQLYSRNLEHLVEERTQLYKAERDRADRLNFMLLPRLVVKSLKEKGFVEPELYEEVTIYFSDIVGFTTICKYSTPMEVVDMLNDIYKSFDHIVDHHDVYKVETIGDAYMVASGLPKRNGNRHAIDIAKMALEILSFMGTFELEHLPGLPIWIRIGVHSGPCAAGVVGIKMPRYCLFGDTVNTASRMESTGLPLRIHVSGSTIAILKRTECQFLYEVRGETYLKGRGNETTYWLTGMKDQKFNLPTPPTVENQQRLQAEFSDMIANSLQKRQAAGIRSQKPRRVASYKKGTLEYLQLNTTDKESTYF

human GUCY2C [4] = biological target: T2, human GUCY2C (human, UniProt P25092 24-1073); assay: flow cytometry on CHO-huGUCY2C cells, 60 min at 37 °C
T2 construct: whole, on cells; also called huGUCY2C; guanylate cyclase 2C
T2 sequence (P25092 24-1073): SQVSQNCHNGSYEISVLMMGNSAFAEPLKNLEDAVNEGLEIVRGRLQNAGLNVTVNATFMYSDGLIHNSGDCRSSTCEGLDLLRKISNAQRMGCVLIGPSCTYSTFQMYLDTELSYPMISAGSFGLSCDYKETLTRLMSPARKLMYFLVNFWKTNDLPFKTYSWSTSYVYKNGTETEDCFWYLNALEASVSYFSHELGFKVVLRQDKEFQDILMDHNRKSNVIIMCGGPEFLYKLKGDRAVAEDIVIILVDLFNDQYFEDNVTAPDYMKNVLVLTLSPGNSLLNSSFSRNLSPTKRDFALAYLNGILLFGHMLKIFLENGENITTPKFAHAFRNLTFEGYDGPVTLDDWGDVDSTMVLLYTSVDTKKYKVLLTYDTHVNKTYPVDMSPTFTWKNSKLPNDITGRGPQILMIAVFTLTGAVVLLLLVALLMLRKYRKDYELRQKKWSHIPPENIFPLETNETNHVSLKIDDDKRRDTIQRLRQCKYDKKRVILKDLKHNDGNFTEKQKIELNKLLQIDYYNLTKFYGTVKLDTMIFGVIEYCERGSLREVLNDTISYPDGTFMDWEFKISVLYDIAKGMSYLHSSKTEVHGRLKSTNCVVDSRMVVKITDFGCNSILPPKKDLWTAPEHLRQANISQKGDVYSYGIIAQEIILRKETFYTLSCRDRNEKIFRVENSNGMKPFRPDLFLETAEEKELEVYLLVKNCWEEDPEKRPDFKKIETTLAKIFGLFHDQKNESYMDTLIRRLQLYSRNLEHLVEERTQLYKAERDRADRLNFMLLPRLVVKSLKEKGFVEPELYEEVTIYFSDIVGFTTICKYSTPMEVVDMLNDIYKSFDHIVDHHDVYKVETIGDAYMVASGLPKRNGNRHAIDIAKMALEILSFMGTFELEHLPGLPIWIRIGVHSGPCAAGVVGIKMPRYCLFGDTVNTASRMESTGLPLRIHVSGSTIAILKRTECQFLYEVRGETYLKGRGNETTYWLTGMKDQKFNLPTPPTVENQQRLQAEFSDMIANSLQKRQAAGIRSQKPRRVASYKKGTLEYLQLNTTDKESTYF

Human CD3 epsilon [5] = biological target: T3, Human CD3 epsilon (human, UniProt P07766 23-207); assay: flow cytometry on human PAN-T cells, 60 min at 4 °C
T3 construct: Stood on human T cells (pan-T cells, isolated donor T cells) as part of the TCR/CD3 complex; the other chains of the complex are not written here; also called CD3ε; CD3R
T3 sequence (P07766 23-207 limits assumed): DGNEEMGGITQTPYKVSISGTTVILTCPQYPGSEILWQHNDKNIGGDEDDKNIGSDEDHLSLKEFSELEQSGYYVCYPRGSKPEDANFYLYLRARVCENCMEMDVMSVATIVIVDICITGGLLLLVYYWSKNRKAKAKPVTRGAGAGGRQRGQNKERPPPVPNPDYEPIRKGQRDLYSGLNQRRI

[6] = biological target: T4, prostate specific membrane antigen (PSMA) (human, UniProt Q04609 1-750); assay: cell-based or functional assay
T4 sequence (Q04609 whole entry): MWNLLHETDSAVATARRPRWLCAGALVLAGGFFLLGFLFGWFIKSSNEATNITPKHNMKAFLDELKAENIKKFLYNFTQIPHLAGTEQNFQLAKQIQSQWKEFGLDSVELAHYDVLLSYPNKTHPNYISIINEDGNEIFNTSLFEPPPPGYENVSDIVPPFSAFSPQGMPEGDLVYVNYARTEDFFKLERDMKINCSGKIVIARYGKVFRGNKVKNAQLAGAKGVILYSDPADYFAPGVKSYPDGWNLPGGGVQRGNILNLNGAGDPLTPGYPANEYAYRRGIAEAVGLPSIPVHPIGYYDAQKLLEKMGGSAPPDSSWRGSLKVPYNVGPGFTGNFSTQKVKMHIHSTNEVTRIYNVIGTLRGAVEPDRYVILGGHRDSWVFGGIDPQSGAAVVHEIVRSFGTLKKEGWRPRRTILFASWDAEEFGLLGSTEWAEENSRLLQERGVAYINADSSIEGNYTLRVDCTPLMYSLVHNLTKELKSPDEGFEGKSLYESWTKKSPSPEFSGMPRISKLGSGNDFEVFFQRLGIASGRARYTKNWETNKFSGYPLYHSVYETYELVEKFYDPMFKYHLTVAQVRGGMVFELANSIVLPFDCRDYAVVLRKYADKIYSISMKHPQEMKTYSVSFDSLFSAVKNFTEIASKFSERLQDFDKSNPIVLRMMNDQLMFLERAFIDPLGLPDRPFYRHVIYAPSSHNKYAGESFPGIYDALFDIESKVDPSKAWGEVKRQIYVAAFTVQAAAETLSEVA

[7] = biological target: T4, prostate specific membrane antigen …; assay: flow cytometry on LNCaP cells, 30 min at 37 °C
cynomolgus monkey CD3 = biological target: T5, cynomolgus monkey CD3 (cynomolgus monkey, UniProt Q95LI5 22-198); assay: not described
T5 construct: whole, on cells; also called cyno CD3; NHP CD3
T5 sequence (Q95LI5 22-198): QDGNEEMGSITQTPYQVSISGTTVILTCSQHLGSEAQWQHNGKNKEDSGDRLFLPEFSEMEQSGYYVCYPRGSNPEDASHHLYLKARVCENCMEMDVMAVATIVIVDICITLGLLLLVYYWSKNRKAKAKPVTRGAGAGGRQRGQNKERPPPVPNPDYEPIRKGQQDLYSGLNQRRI

Human CD3 epsilon [8] = biological target: T3, Human CD3 epsilon; assay: flow cytometry on primary T cells, 1 hour at 37 °C
human GUCY2C [9] = biological target: T2, human GUCY2C; assay: flow cytometry on T84 cells, 1 hour at 37 °C
human GUCY2C [10] = biological target: T2, human GUCY2C; assay: cell-based or functional assay

B1: CLDN18.2xCD3 bisp-Ab4 (bispecific antibody)
heavy: EVQLLESGGGLVQPGGSLRLSCAASGFIFSNYYMAWVRLAPGKGLEWVSSISIGGGKSHYADSVKGRFTISRDNSKNTLYLQMNSLRAEDTAVYYCVRHPQLGPNPFDYWGQGTLVTVSSASTKGPSVFPLAPSSKSTSGGTAALGCLVKDYFPEPVTVSWNSGALTSGVHTFPAVLQSSGLYSLSSVVTVPSSSLGTQTYICNVNHKPSNTKVDKKVEPKSCDKTHTCPPCPAPEAAGGPSVFLFPPKPKDTLMISRTPEVTCVVVSVSHEDPEVKFNWYVDGVEVHNAKTKPREEQYNSTYRVVSVLTVLHQDWLNGKEYKCKVSNKALPAPIEKTISKAKGQPREPQVYTLPPSREEMTKNQVSLSCAVKGFYPSDIAVEWESNGQPENNYKTTPPVLDSDGSFFLVSKLTVDKSRWQQGNVFSCSVMHEALHNRFTQKSLSLSPGK
light: DIQMTQSPSSLSASVGDRVTITCRASQSVTISSVDLMNWYQQKPGKAPKLLIYRASNLASGIPSRFSGSGSGTDFTLTISSLQPEDFATYYCQQSRESPYTFGQGTKLEIKRTVAAPSVFIFPPSDEQLKSGTASVVCLLNNFYPREAKVQWKVDNALQSGNSQESVTEQDSKDSTYSLSSTLTLSKADYEKHKVYACEVTHQGLSSPVTKSFNRGEC
chain: EIVLTQSPATLSASPGERVTLSCSASSSVSYMNWYQQKPGCAPRRWIYDSSKLASGVPARFSGSGSGRDYTLTISSLEPEDFAVYYCQQWSRNPPTFGGGTKVEIKGGGSGGSGGCPPCGGSGGQVQLVQSGAEVKKPGSSVKVSCKASGYTFTRSTMHWVKQAPGQGLEWIGYINPSSAYTNYNQKFQGRVTLTADKSTSTAYMELSSLRSEDTAVYYCASPQVHYDYAGFPYWGCGTLVTVSS
notes: The entry for the CD3 arm holds only the spFv; also called CLDN18.2×CD3 bisp-Ab4; not shown: IgG1 hinge-CH2-CH3 with L234A/L235A/D265S and heterodimerization mutations
- EC50 (human claudin 18.2 [1]): 74 nM
- EC50 (human claudin 18.2 [2]): 41.3 nM
- EC50 (human claudin 18.2 [3]): 23 nM

B2: CLDN18.2xCD3 bisp-Ab2 (bispecific antibody)
heavy: B1 heavy with Q101S
light: B1 light
chain: B1 chain
notes: The entry for the CD3 arm holds only the spFv; not shown: IgG1 hinge-CH2-CH3 with L234A/L235A/D265S and heterodimerization mutations
- EC50 (human claudin 18.2 [2]): 193 nM

B3: CLDN18.2xCD3 bisp-Ab3 (bispecific antibody)
heavy: B1 heavy with L102S
light: B1 light
chain: B1 chain
notes: as for B2
- EC50 (human claudin 18.2 [2]): 229 nM

B4: CLDN18.2xCD3 bisp-Ab1 (bispecific antibody)
heavy: B1 heavy with H59S
light: B1 light
chain: B1 chain
notes: not shown: IgG1 hinge-CH2-CH3 with L234A/L235A/D265S and heterodimerization mutations
- EC50 (human claudin 18.2 [2]): 12.7 nM

B5: GUCY2C_mAb (antibody, V domains shown)
VH: QVQLQESGPGLVKPSETLSLTCTVSGASISHYYWSWIRRPAGKGLEWIGRIYTSGSTNYNPSLKSRVTVSVDTSKNQFSLKLSSVTAADTAVYYCARDRYTGYFDLWGRGTLVTVSS
VL: not shown
notes: also called GUCYC2_mAb
- EC50 (cyno GUCY2C): 8.7 nM
- EC50 (human GUCY2C [4]): 4.6 nM

B6: stapled PSMA×CD3 antibody (PS3B2040) (bispecific antibody, human IgG1, lambda, L234A L235A)
heavy: EVQLVESGGGLVQPGGSLRLSCAASGFTFSSYAMSWVRQAPGKGLEWVSAISGGIGSTYYADSVKGRFTISRDNSKNTLWLQMNSLRAEDTAVYYCAKDAVGATPYYFDYWGQGTLVTVSSASTKGPSVFPLAPSSKSTSGGTAALGCLVKDYFPEPVTVSWNSGALTSGVHTFPAVLQSSGLYSLSSVVTVPSSSLGTQTYICNVNHKPSNTKVDKKVEPKSCDKTHTCPPCPAPEAAGGPSVFLFPPKPKDTLMISRTPEVTCVVVSVSHEDPEVKFNWYVDGVEVHNAKTKPREEQYNSTYRVVSVLTVLHQDWLNGKEYKCKVSNKALPAPIEKTISKAKGQPREPQVYTLPPSREEMTKNQVSLSCAVKGFYPSDIAVEWESNGQPENNYKTTPPVLDSDGSFFLVSKLTVDKSRWQQGNVFSCSVMHEALHNRFTQKSLSLSPGK
light: QSVLTQPPSVSAAPGQKVTISCSGSSSNIGINYVSWYQQLPGTAPKLLIYDNNKRPSGIPDRFSGSKSGTSATLGITGLQTGDEADYYCGTWDSSLSAVVFGGGTKLTVLGQPKAAPSVTLFPPSSEELQANKATLVCLISDFYPGAVTVAWKADSSPVKAGVETTTPSKQSNNKYAASSYLSLTPEQWKSHRSYSCQVTHEGSTVEKTVAPTECS
chain: EIVLTQSPATLSASPGERVTLSCSASSSVSYMNWYQQKPGCAPRRWIYDSSKLASGVPARFSGSGSGRDYTLTISSLEPEDFAVYYCQQWSRNPPTFGGGTKVEIKGGGSGGSGGCPPCGGSGGQVQLVQSGAEVKKPGSSVKVSCKASGYTFTRSTMHWVKQAPGQGLEWIGYINPSSAYTNYNQKFQGRVTLTADKSTSTAYMELSSLRSEDTAVYYCASPQVHYDYAGFPYWGCGTLVTVSSEPKSSDKTHTCPPCPAPEAAGGPSVFLFPPKPKDTLMISRTPEVTCVVVSVSHEDPEVKFNWYVDGVEVHNAKTKPREEQYNSTYRVVSVLTVLHQDWLNGKEYKCKVSNKALPAPIEKTISKAKGQPREPQVYTLPPSREEMTKNQVSLWCLVKGFYPSDIAVEWESNGQPENNYKTTPPVLDSDGSFFLYSKLTVDKSRWQQGNVFSCSVMHEALHNHYTQKSLSLSPGK
notes: HC1/LC1 = anti-PSMA Fab arm (PSMB896-G100A-Fab); HC2 = anti-CD3 spFv-Fc (CD3B2030 N106A, VL-linker-VH); knob-in-hole IgG1; also called stapled PSMA×CD3 bispecific
- binding result (Human CD3 epsilon [5]): binds
- cytotoxicity EC50 (% tumor lysis, Incucyte), LNCaP cells with human PBMCs, E:T 3:1 [6]: 0.051 nM
- cytotoxicity EC50 (% tumor lysis, Incucyte), LNCaP cells with human Pan T cells, E:T 3:1 [6]: 0.06 nM
- EC50 [7]: 11.6 nM

B7: GUCY2C×CD3_biAb-1 (bispecific antibody, human IgG1, kappa, L234A L235A)
heavy: QVQLQESGPGLVKPSETLSLTCTVSGASISHYYWSWIRRPAGKGLEWIGRIYTSGSTNYNPSLKSRVTVSVDTSKNQFSLKLSSVTAADTAVYYCARDRYTGYFDLWGRGTLVTVSSASTKGPSVFPLAPSSKSTSGGTAALGCLVKDYFPEPVTVSWNSGALTSGVHTFPAVLQSSGLYSLSSVVTVPSSSLGTQTYICNVNHKPSNTKVDKKVEPKSCDKTHTCPPCPAPEAAGGPSVFLFPPKPKDTLMISRTPEVTCVVVSVSHEDPEVKFNWYVDGVEVHNAKTKPREEQYNSTYRVVSVLTVLHQDWLNGKEYKCKVSNKALPAPIEKTISKAKGQPREPQVYTLPPSREEMTKNQVSLSCAVKGFYPSDIAVEWESNGQPENNYKTTPPVLDSDGSFFLVSKLTVDKSRWQQGNVFSCSVMHEALHNRFTQKSLSLSPGK
light: not shown
chain: B6 chain
notes: HC2 = CD3_spFv-1-Fc (knob); IgG1 with L234A/L235A/D265S; also called GUCY2CxCD3 bisp-Ab1; GUCY2C-CD3-bisp-Ab1
- binding result (cynomolgus monkey CD3): no binding
- EC50 (Human CD3 epsilon [8]): 108 nM
- EC50 (human GUCY2C [9]): 12 nM
- Tumor killing EC50 (nM), HT-55 (human GUCY2C [10]): 0.8 nM
- Tumor killing EC50 (nM), LS1034 (human GUCY2C [10]): 0.04 nM
